Literature values, collected in paper PMC3229669.

Target: histone H4 N-terminal tail (UniProt P62805)

Sequence of Spt16 NT domain (O94267 1-442): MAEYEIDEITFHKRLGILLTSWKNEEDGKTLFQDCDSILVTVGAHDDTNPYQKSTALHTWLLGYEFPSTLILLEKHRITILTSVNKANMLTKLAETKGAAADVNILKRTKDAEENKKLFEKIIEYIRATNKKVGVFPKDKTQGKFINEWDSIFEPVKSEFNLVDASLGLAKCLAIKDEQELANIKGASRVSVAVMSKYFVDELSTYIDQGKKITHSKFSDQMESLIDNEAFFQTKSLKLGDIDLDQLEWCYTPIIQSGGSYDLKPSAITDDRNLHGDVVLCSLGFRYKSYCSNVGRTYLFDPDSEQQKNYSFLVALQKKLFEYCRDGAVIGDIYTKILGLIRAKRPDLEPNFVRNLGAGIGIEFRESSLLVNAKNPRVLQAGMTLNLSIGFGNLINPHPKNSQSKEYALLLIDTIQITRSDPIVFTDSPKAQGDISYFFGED

Kd: 3000 nM
Substance: Spt16 NT domain (from UniProt O94267)
